The values that follow come from article PMC6947844 (Antibody therapeutics, 2019).

The test concerns the target Human EGFRvIII extracellular domain (ECD) C-terminal His-tagged protein (Homo sapiens, deletion of amino acids 6 to 273). The test is described as follows: BLI. Background: Biolayer interferometry detects binding as a change in optical thickness at a sensor tip.

A word on the Kd: it is the free concentration of one partner at which half of the binding sites on the other are occupied at equilibrium, for simple one-to-one binding. The low end stands for tighter binding, the high end for weaker binding.

B1: monoclonal antibody 40H3 (antibody, V domains shown)
VH: QVQLKQSGPGLVQPSQSLSITCTVSGFSLTNYGIHWLRQSPGKGLEWLGMMWRGGGTDYNAAFISRLTITKDTSKSQVFFRMNNLQTNDTAIYYCARKGVGMGLGYWGQGTSVTVSS
VL: DIQMTQSPASQSASLGESVTITCLASQTIGTWVAWYQQKPGRSPQLLIYGATNLADGVPSRFSGSGSGTKFSFKISSLQAEDFVSYYCQQLYSNPYTFGGGTKLEIK
Turning to B1, the Kd was ~270 pM.
